From US20150216972A1 (SAMSUNG ELECTRONICS, published 2015)

B1: ME-19, bispecific anti-c-Met/anti-EGFR antibody (anti-c-Met antibody L3-1Y / anti-EGFR DARPin conjugate) (bispecific antibody, human IgG2, kappa)
heavy: EVQLVESGGGLVQPGGSLRLSCAASGFTFTDYYMSWVRQAPGKGLEWLGFIRNKANGYTTEYSASVKGRFTISRDNSKNTLYLQMNSLRAEDTAVYYCARDNWFAYWGQGTLVTVSSASTKGPSVFPLAPCSRSTSESTAALGCLVKDYFPEPVTVSWNSGALTSGVHTFPAVLQSSGLYSLSSVVTVPSSNFGTQTYTCNVDHKPSNTKVDKTVERKCCVECPPCPAPPVAGPSVFLFPPKPKDTLMISRTPEVTCVVVDVSHEDPEVQFNWYVDGVEVHNAKTKPREEQFNSTFRVVSVLTVVHQDWLNGKEYKCKVSNKGLPAPIEKTISKTKGQPREPQVYTLPPSREEMTKNQVSLTCLVKGFYPSDIAVEWESNGQPENNYKTTPPMLDSDGSFFLYSKLTVDKSRWQQGNVFSCSVMHEALHNHYTQKSLSLSPGKGGGGSGGGGSDLGKKLLEAARAGQDDEVRILMANGADVNADDTWGWTPLHLAAYQGHLEIVEVLLKNGADVNAYDYIGWTPLHLAADGHLEIVEVLLKNGADVNASDYIGDTPLHLAAHNGHLEIVEVLLKHGADVNAQDKFGKTAFDISIDNGNEDLAEILQ
light: DIQMTQSPSSLSASVGDRVTITCKSSQSLLASGNQNNYLAWYQQKPGKAPKMLIIWASTRVSGVPSRFSGSGSGTDFTLTISSLQPEDFATYYCQQSYSRPYTFGQGTKVEIKRTVAAPSVFIFPPSDEQLKSGTASVVCLLNNFYPREAKVQWKVDNALQSGNSQESVTEQDSKDSTYSLSSTLTLSKADYEKHKVYACEVTHQGLSSPVTKSFNRGEC
notes: also called c-Met/EGFR bsAb
B2: AbF46, mouse monoclonal antibody to c-Met (antibody, V domains shown)
VH: EVKLVESGGGLVQPGGSLRLSCATSGFTFTDYYMSWVRQPPGKALEWLGFIRNKANGYTTEYSASVKGRFTISRDNSQSILYLQMDTLRAEDSATYYCARDNWFAYWGQGTLVTVSA
VL: DILMTQSPSSLTVSAGEKVTMSCKSSQSLLASGNQNNYLAWHQQKPGRSPKMLIIWASTRVSGVPDRFIGSGSGTDFTLTINSVQAEDLAVYYCQQSYSAPLTFGAGTKLELK
notes: Screened as hybridoma culture supernatant; also called monoclonal antibody of hybridoma KCLRF-BP-00220

Key:
EGFR (R&D Systems) = biological target: T1, EGFR (R&D Systems) (UniProt P00533 25-645, limits assumed); experiment: SPR, Biacore T100
T1 construct: also called epidermal growth factor receptor

[1] = biological target: T2, human c-Met/Fc fusion protein (R&D Systems) (human, UniProt P08581 25-932); experiment: ELISA, human c-Met/Fc coated at 2 ug/mL, hybridoma culture supernatant
T2 construct: Bought reagent; also called human c-Met/Fc protein; not shown: Fc part of the bought fusion
Method: Human c-Met/Fc fusion protein was seeded in an amount of 50 μL (2 μg/mL)/well to microtiter plates and allowed to adhere to the surface of each well. The antibody that remained unbound was removed by washing.
The hybridoma cell culture obtained in Reference Example 1.1.2 was added in an amount of 50 μL to each well of the plates and incubated for 1 hour. The cells remaining unreacted were washed out with a sufficient amount of Tris-buffered saline and Tween 20 (TBST). Goat anti-mouse IgG-horseradish peroxidase (HRP) was added to the plates and incubated for 1 hour at room temperature. The plates were washed with a sufficient amount of TBST, followed by reacting the peroxidase with a substrate (OPD). Absorbance at 450 nm was measured on an ELISA reader.

T2 sequence (P08581 25-932 limits assumed): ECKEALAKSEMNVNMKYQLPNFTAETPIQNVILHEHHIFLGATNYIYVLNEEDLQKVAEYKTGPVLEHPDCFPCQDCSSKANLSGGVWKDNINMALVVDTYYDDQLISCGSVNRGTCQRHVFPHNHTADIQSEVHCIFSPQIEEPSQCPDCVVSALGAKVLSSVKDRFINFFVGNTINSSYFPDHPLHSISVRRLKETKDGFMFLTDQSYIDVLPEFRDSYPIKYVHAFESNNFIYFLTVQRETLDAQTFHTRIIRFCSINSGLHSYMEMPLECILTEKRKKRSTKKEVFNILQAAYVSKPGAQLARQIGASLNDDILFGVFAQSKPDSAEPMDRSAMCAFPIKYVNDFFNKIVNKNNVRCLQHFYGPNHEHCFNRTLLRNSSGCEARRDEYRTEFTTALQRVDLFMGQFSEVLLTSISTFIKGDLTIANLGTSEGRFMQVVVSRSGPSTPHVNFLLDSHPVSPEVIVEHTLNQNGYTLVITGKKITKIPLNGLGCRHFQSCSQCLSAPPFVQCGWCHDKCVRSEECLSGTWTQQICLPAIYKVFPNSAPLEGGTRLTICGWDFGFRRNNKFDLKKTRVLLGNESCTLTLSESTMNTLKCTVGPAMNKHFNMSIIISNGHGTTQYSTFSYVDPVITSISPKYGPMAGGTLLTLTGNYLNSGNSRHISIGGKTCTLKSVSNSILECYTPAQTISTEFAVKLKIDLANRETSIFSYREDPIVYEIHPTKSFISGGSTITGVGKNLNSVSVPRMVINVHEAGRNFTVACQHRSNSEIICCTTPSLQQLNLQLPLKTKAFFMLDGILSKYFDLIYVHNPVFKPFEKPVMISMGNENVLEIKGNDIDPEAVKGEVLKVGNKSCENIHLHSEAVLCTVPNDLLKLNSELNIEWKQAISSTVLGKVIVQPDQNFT

Row | Binder | Kd (EGFR (R&D Systems)) [nM] | binding result [1]
1 | B1 | ~0.35 | 
2 | B2 |  | binds
